Patent US12042530B2, “Target peptides for immunotherapy and diagnostics” (University of Virginia Patent Foundation, priority 2012, dated 2024)
Non-standard residues stand in square brackets, D forms with d. No end group written: not given here. pT = C[C@@H](OP(=O)(O)O)[C@H](N)C(=O)O; pS = N[C@@H](COP(=O)(O)O)C(=O)O

Key:
[1] = biological target: T1, HLA-B*0702 (HLA-B7) peptide complexes (Homo sapiens, UniProt P01889); assay: HLA-B*0702 phosphopeptides associated with leukemia samples (isolation of HLA-associated peptides); details: for Copies/cell class, ALL1: acute lymphoblastic leukemia sample ALL1; for Copies/cell class, HCL1: hairy cell leukemia sample HCL1; for Copies/cell class, B Cell: healthy B cells; for Copies/cell class, T Cell: healthy T cells
T1 construct: endogenous in cells; host or cells: JY B-lymphoblastoid line; primary ALL, CLL, HCL, AML samples; bone marrow; healthy B and T cells
Text: To identify naturally processed tumor-associated phosphopeptides, HLA-A*0201 (HLA-A2) and HLA-B*0702 (HLA-B7) peptide complexes from four (4) chronic lymphocytic leukemia (CLL) tumor samples, a mantle cell lymphoma sample (MCL), one acute lymphoblastic leukemia (ALL), and an acute myeloid leukemia (AML) sample, in addition to healthy splenic T and B-cells and the cultured lymphoblastoid cell line JY were isolated. These efforts yielded 10 HLA-A2-restricted and 86 HLA-B7-restricted phosphopeptide antigens (see Tables 6 and 7).
All cell lines were grown at 37° C. with 5% CO2 in growth medium consisting of RPMI 1640 supplemented with 10% FCS and two mM L-glutamine. Blood or leukapheresis samples were taken from patients with high-burden leukemia in heparin. Tumor cells were recovered by layering the blood over density gradient (Ficoll) and collecting the tumor layer following centrifugation. The tumor was washed in tris-buffered saline (TBS). The purity of the tumor was assessed using flow cytometry and was >98% pure in all cases. For healthy T and B-cell populations, a normal spleen sample processed and tonsil sample was collected and lymphocytes released through mechanical disruption. Mononuclear cells were isolated using a density gradient and 10^9 T cells isolated using anti-CD19 or anti-CD3 microbeads (Miltenyi Biotec Inc., Auburn, California, United States of America) with purity >98% were obtained. Bone marrow sample was obtained from an elective orthopedic procedure and red cell-depleted using hypotonic lysis. This sample was not processed further.
Class I MHC molecules were immunoaffinity purified from the JY cell line or from primary tumor samples, and their associated peptides were extracted as previously described in Zarling et al., 2006. Approximately 1.2-14×10^9 cells were lysed in a solution containing 20 mM Tris-HCl (pH 8.0), 150 mM NaCl, 1% CHAPS, one mM PMSF, five μg/mL aprotinin, 10 μg/mL leupeptin, 10 μg/mL pepstatin A, 1 μg/ml calyculin A, and phosphatase inhibitor (cocktails I and II; Sigma-Aldrich). The mixture was subjected to centrifugation and the resulting supernatant was passed over protein A sepharose pre-loaded with the HLA-A2-specific antibody BB7.2 or HLA-B7-specific antibody MEL Peptides were eluted from the purified class I MHC molecules with 10% acetic acid.

HLA-B*0702 = biological target: T2, HLA-B*0702 (Homo sapiens, UniProt P01889); assay: Phosphopeptides presented in association with class I molecules (HLA-B*0702) on cancer cells: melanoma and/or leukemia; set-up: key: Melanoma (M); Leukemia (L); L/M: Melanoma (M) and/or Leukemia (L); details: cancer type on which the HLA-B*0702 phosphopeptide is presented
T2 construct: endogenous in cells; host or cells: melanoma and/or leukemia cells

Substance	Copies/cell class, AML1 [1]	Copies/cell class, CLL2 [1]	Copies/cell class, CLL4 [1]	Copies/cell class, JY [1]	Copies/cell class, ALL1 [1]	Copies/cell class, HCL1 [1]	Copies/cell class, B Cell [1]	Copies/cell class, T Cell [1]	L/M (HLA-B*0702)
324 (RPQRAT[pS]NVF; listed as Homo sapiens) [compound 324]	2 (2 indicates 1-5 copies/cell)						2 (2 indicates 1-5 copies/cell)	3 (3 indicates 6-25 copies per cell)	L
325 (RPRAN[pS]GGVDL; listed as Homo sapiens) [compound 325]	2 (2 indicates 1-5 copies/cell)								L
327 (RPRPH[pS]APSL; listed as Homo sapiens) [compound 327]	2 (2 indicates 1-5 copies/cell)								L
330 (RPR[pS]AVLL; listed as Homo sapiens) [compound 330]	2 (2 indicates 1-5 copies/cell)								L
331 (RPR[pS]LEVTI; listed as Homo sapiens) [compound 331]	1 (1 indicates <1 copy/cell)								L
333 (RPR[pS]PAARL; listed as Homo sapiens) [compound 333]	1 (1 indicates <1 copy/cell)								L
334 (RPR[pS]PGSNSKV; listed as Homo sapiens) [compound 334]	1 (1 indicates <1 copy/cell)								L
342 (RPSRS[pS]PGL; listed as Homo sapiens) [compound 342]	2 (2 indicates 1-5 copies/cell)								L
343 (RPS[pS]LPDL; listed as Homo sapiens) [compound 343]	2 (2 indicates 1-5 copies/cell)	2 (2 indicates 1-5 copies/cell)		3 (3 indicates 6-25 copies per cell)	4 (4 indicates >25 copies per cell)	1 (1 indicates <1 copy/cell)	3 (3 indicates 6-25 copies per cell)	4 (4 indicates >25 copies per cell)	L
347 (RPV[pS]PFQEL; listed as Homo sapiens) [compound 347]	2 (2 indicates 1-5 copies/cell)	2 (2 indicates 1-5 copies/cell)	2 (2 indicates 1-5 copies/cell)	4 (4 indicates >25 copies per cell)	3 (3 indicates 6-25 copies per cell)	3 (3 indicates 6-25 copies per cell)	3 (3 indicates 6-25 copies per cell)	3 (3 indicates 6-25 copies per cell)	L
348 (RPV[pS]PGKDI; listed as Homo sapiens) [compound 348]					1 (1 indicates <1 copy/cell)				L
350 (RPW[pS]PAVSA; listed as Homo sapiens) [compound 350]				1 (1 indicates <1 copy/cell)	1 (1 indicates <1 copy/cell)	1 (1 indicates <1 copy/cell)			L
356 (RRS[pS]LDAEIDSL; listed as Homo sapiens) [compound 356]	1 (1 indicates <1 copy/cell)								L
358 (RSE[pS]KDRKL; listed as Homo sapiens) [compound 358]					1 (1 indicates <1 copy/cell)				L
359 (RSG[pS]LERKV; listed as Homo sapiens) [compound 359]					1 (1 indicates <1 copy/cell)				L
360 (RSL[pS]PGGAA; listed as Homo sapiens) [compound 360]					1 (1 indicates <1 copy/cell)				L
363 (RTE[pS]DSGLKK; listed as Homo sapiens) [compound 363]					1 (1 indicates <1 copy/cell)				L
367 (SPA[pS]PKISL; listed as Homo sapiens) [compound 367]		1 (1 indicates <1 copy/cell)	1 (1 indicates <1 copy/cell)	4 (4 indicates >25 copies per cell)	1 (1 indicates <1 copy/cell)	1 (1 indicates <1 copy/cell)			L

Further lines, results first:

Copies/cell class, AML1 [1]	Copies/cell class, CLL2 [1]	Copies/cell class, CLL4 [1]	Copies/cell class, JY [1]	Copies/cell class, ALL1 [1]	Copies/cell class, HCL1 [1]	Copies/cell class, B Cell [1]	Copies/cell class, T Cell [1]	L/M (HLA-B*0702)	Substance
2 (2 indicates 1-5 copies/cell)	4 (4 indicates >25 copies per cell)	4 (4 indicates >25 copies per cell)	4 (4 indicates >25 copies per cell)	4 (4 indicates >25 copies per cell)	4 (4 indicates >25 copies per cell)	2 (2 indicates 1-5 copies/cell)	4 (4 indicates >25 copies per cell)	L	323 (RPQRA[pT]SNVF; listed as Homo sapiens) [compound 323]
1 (1 indicates <1 copy/cell)								L	328 (RPRPV[pS]PSSL; listed as Homo sapiens) [compound 328]
2 (2 indicates 1-5 copies/cell)								L	336 (RPR[pS]PRQNSI; listed as Homo sapiens) [compound 336]
2 (2 indicates 1-5 copies/cell)								L	337 (RPR[pS]PSPIS; listed as Homo sapiens) [compound 337]
4 (4 indicates >25 copies per cell)								L	338 (RPR[pS]PTGP; listed as Homo sapiens) [compound 338]
2 (2 indicates 1-5 copies/cell)								L	339 (RPR[pS]PTGP[pS]NSF; listed as Homo sapiens) [compound 339]
1 (1 indicates <1 copy/cell)	1 (1 indicates <1 copy/cell)	1 (1 indicates <1 copy/cell)		1 (1 indicates <1 copy/cell)	1 (1 indicates <1 copy/cell)			L	344 (RP[pS]SPALYF; listed as Homo sapiens) [compound 344]
2 (2 indicates 1-5 copies/cell)	2 (2 indicates 1-5 copies/cell)	2 (2 indicates 1-5 copies/cell)	4 (4 indicates >25 copies per cell)	2 (2 indicates 1-5 copies/cell)	2 (2 indicates 1-5 copies/cell)	2 (2 indicates 1-5 copies/cell)		L	346 (RPT[pS]RLNRL; listed as Homo sapiens) [compound 346]
	2 (2 indicates 1-5 copies/cell)		4 (4 indicates >25 copies per cell)	4 (4 indicates >25 copies per cell)	1 (1 indicates <1 copy/cell)	2 (2 indicates 1-5 copies/cell)	2 (2 indicates 1-5 copies/cell)	L	349 (RPV[pT]PVSDL; listed as Homo sapiens) [compound 349]
2 (2 indicates 1-5 copies/cell)			2 (2 indicates 1-5 copies/cell)	2 (2 indicates 1-5 copies/cell)		2 (2 indicates 1-5 copies/cell)	2 (2 indicates 1-5 copies/cell)	L	351 (RPY[pS]PPFFSL; listed as Homo sapiens) [compound 351]
4 (4 indicates >25 copies per cell)								L	352 (RRK[pS]QVAEL; listed as Homo sapiens) [compound 352]
				2 (2 indicates 1-5 copies/cell)		1 (1 indicates <1 copy/cell)	1 (1 indicates <1 copy/cell)	L	361 (RSL[pS]PLLF; listed as Homo sapiens) [compound 361]
2 (2 indicates 1-5 copies/cell)								L	366 (RVR[pS]PTRSP; listed as Homo sapiens) [compound 366]
1 (1 indicates <1 copy/cell)								L	368 (SPEKAGRR[pS]SL; listed as Homo sapiens) [compound 368]
